Here are results for one molecule from patent US5843750A, “Sorbitol kinase, process for producing the same, and substantially pure microorganism” (priority 1994, dated 1998).

A value given as a limit tells only on which side of the number the result lay.

The nature of series [1]: Optimum pH/temperature, pH stability and heat stability of sorbitol kinase. It counts as physicochemical, Erwinia sp. SK-472-20. The procedure: One milliliter of a reaction mixture consisting of 0.2M Tris-HCl buffer solution (pH 8.5) 0.2 ml, 0.1M ATP 0.02 ml, 0.1M MgCl2 0.02 ml, 100 U/ml sorbitol-6-phosphate dehydrogenase (refer to referential example) 0.05 ml, 10 mM NAD 0.1 ml, 100 U/ml diaphorase (Asahi Chemical Ind. Co.) 0.05 ml, 0.25% NTB 0.1 ml, 1M sorbitol 0.1 ml, 10% Triton X-100 0.01 ml and distilled water 0.3 ml was pre-heated at 37° C. for 1 minute, and the enzyme solution 20 μl was added thereto, then the mixture was incubated for 10 minutes.
Reaction was terminated by adding 0.1N HCl 2 ml and optical density of the mixture was measured using 1.0 cm cell at 550 nm within 5 minutes (As). Also optical density of distilled water 20 μl in place of the enzyme solution was measured in the same manner as above as a blank test (Ab). Enzymatic activity is determined by difference in the absorption between the optical density of the enzyme solution (As) and the blank test (Ab), i.e. (As-Ab). A unit of enzyme activity is defined as an amount of enzyme which generate 1 μm of reduced NAD in one minutes at 37° C. and calculated by the following equation.
Optimum pH is measured by the above enzyme assay method. In FIG. 1, 100 mM phosphate buffer is used for pH 6.0-8.0 (-.largecircle.-); 100 mM Tris-HCl buffer for pH 7.0-9.0 (-.circle-solid.-); and 100 mM glycine-sodium hydroxide buffer for pH 9.0-10.5 (-.quadrature.-). Optimum pH is 8.5-9.5.
100 mM buffer solutions containing sorbitol kinase 0.5 U/ml were treated at 60° C. for 15 minutes, and remaining activity was measured by the above enzyme assay method. In FIG. 2, 100 mM acetate buffer is used for pH 4.5-6.0 (-.largecircle.-); 100 mM phosphate buffer for pH 6.0-8.0 (-.circle-solid.-); 100 mM Tris-HCl buffer for pH 7.0-8.5 (-.quadrature.-); and 100 mM glycine-sodium hydroxide buffer for pH 9.0-10.5 (-.box-solid.-). Most preferable stability is observed at pH 6.5-10.0.
Optimum temperature of the enzyme was measured by changing temperature range at 37° C.-60° C. according to the above assay method. Result is shown in FIG. 3, in which optimum temperature of the present enzyme is approx. 50° C.
100 mM Tris-HCl buffer solution (pH 8.5) containing sorbitol kinase 0.5 U/ml was treated at various temperatures for 15 minutes, and remaining activity was measured by the above enzyme assay method. Results are shown in FIG. 4 in which the enzyme is stable at least up to 60° C.

Series [2] is described as follows: Isoelectric point of sorbitol kinase (electrophoresis using carrier ampholytes). It counts as physicochemical, Erwinia sp. SK-472-20. The text has this:
4.8±0.5 (electrophoresis using carrier ampholytes)

A short description of series [3]: Physico-chemical properties of sorbitol kinase produced by the transformant. It counts as physicochemical, Erwinia sp. SK-472-20 gene expressed in E.coli. Conditions: enzyme produced by transformant.

B1: sorbitol kinase: ATP-utilizing sorbitol kinase of Erwinia sp. SK-472-20, stable up to 60° C., amino acids 1 to 313 of SEQ ID NO: 1; also produced by E.coli transformant (protein)
chain: MRIGIDLGGTKTEVIALSEQGEQLFRHRLPTPRDDYHQTIETIARLVDMAEQATGQTGTVGMGIPGSISPYTGVVKNANSTWLNGQPFDKDLSQRLNREVRLANDANCLAVSEAIDGAAAGAQTVFAVIIGTGCGAGVALGGRAHIGGNGTAGEWGHNPLPWMDEDELKYRAEVPCYCGKQGCIETFISGTGFATDYHRLSGQPLKGNEIMRRVGEHDPVAELALSRYEMRLAKSLAHVVNILDPDVIVLGGGMSNVDRLYATVPNLVKQWVFGGECETPIRKRCTGTPAACAAPRGSGRYSHSPSPYVRGAG
For B1, the “Heat stability (stable up to)” value in series [1] (100 mM Tris-HCl pH 8.5, 0.5 U/ml, 15 minutes, remaining activity, FIG. 4) is at least 60 °C. In addition, the “Optimum pH” value in series [1] (100 mM phosphate, Tris-HCl, glycine-sodium hydroxide buffers, FIG. 1) is 8.5-9.5. For the same molecule, the “pH stability (most preferable stability)” value in series [1] (0.5 U/ml in 100 mM buffers, 60° C. for 15 minutes, remaining activity, FIG. 2) is listed as 6.5-10.0. Also, the Optimum temperature entry in series [1] (range 37° C.-60° C., FIG. 3) was “approx. 50 °C”. In series [2], this molecule gave an Isoelectric point of 4.8±0.5. In series [3], the “Heat stability (stable up to)” value is “up to 60 °C”, the Isoelectric point amounted to 4.80±0.5, the “Optimum pH” value is 8.5-9.5 and the pH stability is reported as 6.5-10.0.
